Results: paper PMC10135718, “Inhibitory Peptide of Soluble Guanylyl Cyclase/Trx1 Interface Blunts the Dual Redox Signaling Functions of the Complex” (Antioxidants, 2023)

Molecular target: the molecule itself
Experiment: non-reducing SDS-PAGE with Western blot; purified GC1 or Trx1, untreated, reduced (10 mM DTT) or oxidized (100 μM diamide), excess reagent removed; 12% SDS-PAGE under non-reducing conditions, blots probed with anti-GC1 α and β or anti-Trx1

Protein	binding result
oxidized Trx1 (oTrx1) (enzyme, human, UniProt P10599 1-105, looked up, thiols oxidized with 100 μM diamide (the cysteine engaged in the homodimer is not identified), Thioredoxin 1, human; same protein as m2, oxidized; mostly a dimer on a non-reducing gel; also used here for the endogenous Trx1 of Jurkat T cells in two functional rows; also called oxidized thioredoxin; source: bought: Fitzgerald industries (30R-2985); treated with 100 μM diamide on ice for 30 min, excess removed) MVKQIESKTAFQEALDAAGDKLVVVDFSATWCGPCKMIKPFFHSLSEKYSNVIFLEVDVDDCQDVASECEVKCMPTFQFFKKGQKVGEFSGANKEKLEATINELV	binds
recombinant human Thioredoxin 1 (Trx1), untreated (enzyme, UniProt P10599 1-105, looked up, Thioredoxin 1, human; also called untreated Trx1; source: bought: Fitzgerald industries (30R-2985)) MVKQIESKTAFQEALDAAGDKLVVVDFSATWCGPCKMIKPFFHSLSEKYSNVIFLEVDVDDCQDVASECEVKCMPTFQFFKKGQKVGEFSGANKEKLEATINELV	binds
oxidized GC1 (oGC1) (complex, human, thiols oxidized with 100 μM diamide (cysteines not mapped) | thiols oxidized with 100 μM diamide (cysteines not mapped), alpha subunit of soluble guanylyl cyclase GC1, human; beta subunit of soluble guanylyl cyclase GC1, human; same protein as m1, oxidized; runs as high molecular weight multimers on a non-reducing gel; also called multimeric oxidized GC1; source: bought: Enzo life sciences (ALX-201-177-C010); treated with 100 μM diamide on ice for 30 min, excess removed) chain 1: MFCTKLKDLKITGECPFSLLAPGQVPNESSEEAAGSSESCKATVPICQDIPEKNIQESLPQRKTSRSRVYLHTLAESICKLIFPEFERLNVALQRTLAKHKIKESRKSLEREDFEKTIAEQAVAAGVPVEVIKESLGEEVFKICYEEDENILGVVGGTLKDFLNSFSTLLKQSSHCQEAGKRGRLEDASILCLDKEDDFLHVYYFFPKRTTSLILPGIIKAAAHVLYETEVEVSLMPPCFHNDCSEFVNQPYLLYSVHMKSTKPSLSPSKPQSSLVIPTSLFCKTFPFHFMFDKDMTILQFGNGIRRLMNRRDFQGKPNFEEYFEILTPKINQTFSGIMTMLNMQFVVRVRRWDNSVKKSSRVMDLKGQMIYIVESSAILFLGSPCVDRLEDFTGRGLYLSDIPIHNALRDVVLIGEQARAQDGLKKRLGKLKATLEQAHQALEEEKKKTVDLLCSIFPCEVAQQLWQGQVVQAKKFSNVTMLFSDIVGFTAICSQCSPLQVITMLNALYTRFDQQCGELDVYKVETIGDAYCVAGGLHKESDTHAVQIALMALKMMELSDEVMSPHGEPIKMRIGLHSGSVFAGVVGVKMPRYCLFGNNVTLANKFESCSVPRKINVSPTTYRLLKDCPGFVFTPRSREELPPNFPSEIPGICHFLDAYQQGTNSKPCFQKKDVEDGNANFLGKASGID chain 2: MYGFVNHALELLVIRNYGPEVWEDIKKEAQLDEEGQFLVRIIYDDSKTYDLVAAASKVLNLNAGEILQMFGKMFFVFCQESGYDTILRVLGSNVREFLQNLDALHDHLATIYPGMRAPSFRCTDAEKGKGLILHYYSEREGLQDIVIGIIKTVAQQIHGTEIDMKVIQQRNEECDHTQFLIEEKESKEEDFYEDLDRFEENGTQESRISPYTFCKAFPFHIIFDRDLVVTQCGNAIYRVLPQLQPGNCSLLSVFSLVRPHIDISFHGILSHINTVFVLRSKEGLLDVEKLECEDELTGTEISCLRLKGQMIYLPEADSILFLCSPSVMNLDDLTRRGLYLSDIPLHDATRDLVLLGEQFREEYKLTQELEILTDRLQLTLRALEDEKKKTDTLLYSVLPPSVANELRHKRPVPAKRYDNVTILFSGIVGFNAFCSKHASGEGAMKIVNLLNDLYTRFDTLTDSRKNPFVYKVETVGDKYMTVSGLPEPCIHHARSICHLALDMMEIAGQVQVDGESVQITIGIHTGEVVTGVIGQRMPRYCLFGNTVNLTSRTETTGEKGKINVSEYTYRCLMSPENSDPQFHLEHRGPVSMKGKKEPMQVWFLSRKNTGTEETKQDDD	binds
purified recombinant human soluble guanylyl cyclase (GC1), untreated (complex, alpha subunit of soluble guanylyl cyclase GC1, human; beta subunit of soluble guanylyl cyclase GC1, human; alpha/beta heterodimer as bought; also called untreated GC1; source: bought: Enzo life sciences (ALX-201-177-C010), purified recombinant) chain 1: MFCTKLKDLKITGECPFSLLAPGQVPNESSEEAAGSSESCKATVPICQDIPEKNIQESLPQRKTSRSRVYLHTLAESICKLIFPEFERLNVALQRTLAKHKIKESRKSLEREDFEKTIAEQAVAAGVPVEVIKESLGEEVFKICYEEDENILGVVGGTLKDFLNSFSTLLKQSSHCQEAGKRGRLEDASILCLDKEDDFLHVYYFFPKRTTSLILPGIIKAAAHVLYETEVEVSLMPPCFHNDCSEFVNQPYLLYSVHMKSTKPSLSPSKPQSSLVIPTSLFCKTFPFHFMFDKDMTILQFGNGIRRLMNRRDFQGKPNFEEYFEILTPKINQTFSGIMTMLNMQFVVRVRRWDNSVKKSSRVMDLKGQMIYIVESSAILFLGSPCVDRLEDFTGRGLYLSDIPIHNALRDVVLIGEQARAQDGLKKRLGKLKATLEQAHQALEEEKKKTVDLLCSIFPCEVAQQLWQGQVVQAKKFSNVTMLFSDIVGFTAICSQCSPLQVITMLNALYTRFDQQCGELDVYKVETIGDAYCVAGGLHKESDTHAVQIALMALKMMELSDEVMSPHGEPIKMRIGLHSGSVFAGVVGVKMPRYCLFGNNVTLANKFESCSVPRKINVSPTTYRLLKDCPGFVFTPRSREELPPNFPSEIPGICHFLDAYQQGTNSKPCFQKKDVEDGNANFLGKASGID chain 2: MYGFVNHALELLVIRNYGPEVWEDIKKEAQLDEEGQFLVRIIYDDSKTYDLVAAASKVLNLNAGEILQMFGKMFFVFCQESGYDTILRVLGSNVREFLQNLDALHDHLATIYPGMRAPSFRCTDAEKGKGLILHYYSEREGLQDIVIGIIKTVAQQIHGTEIDMKVIQQRNEECDHTQFLIEEKESKEEDFYEDLDRFEENGTQESRISPYTFCKAFPFHIIFDRDLVVTQCGNAIYRVLPQLQPGNCSLLSVFSLVRPHIDISFHGILSHINTVFVLRSKEGLLDVEKLECEDELTGTEISCLRLKGQMIYLPEADSILFLCSPSVMNLDDLTRRGLYLSDIPLHDATRDLVLLGEQFREEYKLTQELEILTDRLQLTLRALEDEKKKTDTLLYSVLPPSVANELRHKRPVPAKRYDNVTILFSGIVGFNAFCSKHASGEGAMKIVNLLNDLYTRFDTLTDSRKNPFVYKVETVGDKYMTVSGLPEPCIHHARSICHLALDMMEIAGQVQVDGESVQITIGIHTGEVVTGVIGQRMPRYCLFGNTVNLTSRTETTGEKGKINVSEYTYRCLMSPENSDPQFHLEHRGPVSMKGKKEPMQVWFLSRKNTGTEETKQDDD	binds
